Changes are numbered by the printed parent chain.
Legend:
pol30-79 (yeast), P15873 = molecular target: T1, pol30-79 (yeast), P15873; assay: two-hybrid; quantitative Y2H: generation time of the YRG2 strains in liquid SC-Leu-Trp-His, given relative to cells expressing WT PCNA; average of at least 3 experiments; conditions: remark: other sources report otherwise
T1 chain: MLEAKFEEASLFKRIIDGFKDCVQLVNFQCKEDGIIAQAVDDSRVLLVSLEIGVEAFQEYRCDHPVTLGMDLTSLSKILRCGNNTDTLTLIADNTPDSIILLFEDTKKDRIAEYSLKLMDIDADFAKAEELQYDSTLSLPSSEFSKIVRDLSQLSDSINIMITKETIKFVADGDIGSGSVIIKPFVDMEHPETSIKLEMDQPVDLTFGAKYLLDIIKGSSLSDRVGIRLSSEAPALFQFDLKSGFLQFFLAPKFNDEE

[1] = molecular target: T2, pol30-Rad30E2 of the mutant strain (yeast, UniProt P15873 1-258, IDCL DIDADFLKIEEL to DDDWDFLKILEL); assay: ELISA; PCNA captured from crude yeast extract (3 mg/ml) on plates coated with anti-PCNA antibody; bound GFP-tagged partner detected by anti-GFP, normalised to the anti-His signal of PCNA; conditions: partners not purified
T2 construct: PCNA (POL30), yeast; source: yeast, sole source of PCNA under the native POL30 promoter, in crude cell extract
T2 sequence: T1 chain with I121D, A123W, A126L, A128I, E129L

[2] = molecular target: T3, pol30-Rad27E6 of the mutant strain (yeast, UniProt P15873 1-258, IDCL DIDADFLKIEEL to DGDYDILKIREL); assay: as above; conditions: partners not purified
T3 construct: PCNA (POL30), yeast; source: yeast, sole source of PCNA under the native POL30 promoter, in crude cell extract
T3 sequence: T1 chain with I121G, A123Y, F125I, A126L, A128I, E129R

[3] = molecular target: the molecule itself; assay: SEC; Superdex 200 10/300 GL, activity buffer (300 mM NaCl, 50 mM Tris-HCl, pH 8), monomer concentrations of 3–8 µM

B1: Rad30, Q04049 1-632 (natural protein)
chain: MSKFTWKELIQLGSPSKAYESSLACIAHIDMNAFFAQVEQMRCGLSKEDPVVCVQWNSIIAVSYAARKYGISRMDTIQEALKKCSNLIPIHTAVFKKGEDFWQYHDGCGSWVQDPAKQISVEDHKVSLEPYRRESRKALKIFKSACDLVERASIDEVFLDLGRICFNMLMFDNEYELTGDLKLKDALSNIREAFIGGNYDINSHLPLIPEKIKSLKFEGDVFNPEGRDLITDWDDVILALGSQVCKGIRDSIKDILGYTTSCGLSSTKNVCKLASNYKKPDAQTIVKNDCLLDFLDCGKFEITSFWTLGGVLGKELIDVLDLPHENSIKHIRETWPDNAGQLKEFLDAKVKQSDYDRSTSNIDPLKTADLAEKLFKLSRGRYGLPLSSRPVVKSMMSNKNLRGKSCNSIVDCISWLEVFCAELTSRIQDLEQEYNKIVIPRTVSISLKTKSYEVYRKSGPVAYKGINFQSHELLKVGIKFVTDLDIKGKNKSYYPLTKLSMTITNFDIIDLQKTVVDMFGNQVHTFKSSAGKEDEEKTTSSKADEKTPKLECCKYQVTFTDQKALQEHADYHLALKLSEGLNGAEESSKNLSFGEKRLLFSRKRPNSQHTATPQKKQVTSSKNILSFFTRKK
Q: B1 was tested. Which fold change in affinity relative to WT PCNA (Y2H generation time) (pol30-79 (yeast), P15873) did it give?
A: 0.4 fold

B2: GFP-tagged Rad30 (natural protein, yeast, UniProt Q04049 1-632, looked up)
chain: B1 chain
notes: Rad30, yeast, tagged at its natural locus; source: yeast, GFP-tagged at the natural locus, in crude cell extract; not shown: GFP, C-terminal, kept
Q: B2 was tested. Which “increase in the amount of complex relative to the POL30 strain” value [1] did it give?
A: 70%

B3: GFP-tagged Rad27 (natural protein, yeast, UniProt P26793 1-382, looked up)
chain: MGIKGLNAIISEHVPSAIRKSDIKSFFGRKVAIDASMSLYQFLIAVRQQDGGQLTNEAGETTSHLMGMFYRTLRMIDNGIKPCYVFDGKPPDLKSHELTKRSSRRVETEKKLAEATTELEKMKQERRLVKVSKEHNEEAQKLLGLMGIPYIIAPTEAEAQCAELAKKGKVYAAASEDMDTLCYRTPFLLRHLTFSEAKKEPIHEIDTELVLRGLDLTIEQFVDLCIMLGCDYCESIRGVGPVTALKLIKTHGSIEKIVEFIESGESNNTKWKIPEDWPYKQARMLFLDPEVIDGNEINLKWSPPKEKELIEYLCDDKKFSEERVKSGISRLKKGLKSGIQGRLDGFFQVVPKTKEQLAAAAKRAQENKKLNKNKNKVTKGRR
notes: Rad27, yeast, tagged at its natural locus; source: yeast, GFP-tagged at the natural locus, in crude cell extract; not shown: GFP, C-terminal, kept
Q: For B3, which “increase in the amount of complex relative to the POL30 strain” value [2] is on record?
A: 17%

B4: proliferating cell nuclear antigen (PCNA), 6×Histidine-tagged (natural protein, yeast)
chain: T1 chain with A126L, A128I
notes: PCNA (POL30), yeast; cloned into pET28 by NdeI and XhoI; also called WT PCNA; Pol30p; source: E. coli BL21, purified (Ni-NTA)
Q: Which “stoichiometry N” value [3] does the source give for B4 here?
A: 3

— PMC2953525, “Subtle Alterations in PCNA-Partner Interactions Severely Impair DNA Replication and Repair” (PLoS Biology, 2010)
